# Test results taken from patent US6358897B1, “Alkyl trypsin compositions and methods of use in contact lens cleaning and disinfecting systems” (Alcon Laboratories, Inc., priority 1996, dated 2002).
# Tested on: azocasein
# Assay: Stability of Me-trypsin in the Example 2A composition, azocasein method
# Assay type: physicochemical
# Protocol: Azocasein Method The following solutions are used in this assay: 1) Buffer solution: 0.05 M sodium phosphate buffer containing 0.9% sodium chloride, pH 7.6. 2) Substrate solution: 2 mg/ml azocasein in the buffer solution mentioned above. The assay is initiated by mixing 1 ml of an appropriately diluted (such that the enzyme activity is in the range of standard curve) enzyme composition in phosphate buffer with 2 ml of azocasein substrate solution (2 mg/ml). After incubation at 37° C. for 20 minutes, the mixture is removed from the incubator and 1 ml of trichloroacetic acid to (14% w/v) is added to stop the enzyme reaction. The mixture is vortexed well and allowed to stand at room temperature for 20 minutes. After centrifuging at 2500 rpm (with a Beckman GS-6R Centrifuge) for 15 minutes, the supernatant is filtered with a serum sampler. 2 ml of the clear yellow filtrate is then adjusted to a neutral pH with 2 ml of 0.5 N sodium hydroxide and the absorbance of 440 nm wavelength light is measured with a spectrophotometer. The amount of azocasein hydrolyzed is calculated based on a standard curve of known concentrations of azocasein solution developed under identical conditions. An enzyme activity unit (“AZ U”) is defined as that amount of enzyme which hydrolyzes 1 μg of azocasein substrate/minute at 37° C. […] At the appointed time, aliquots were tested for enzyme activity by the azocasein method. Activity levels were compared with initial levels and expressed as percent remaining activity.
substance,measurement,setting,value
methyl trypsin [Me-Trypsin],Percent Remaining Activity,"40° C., 1 week",100%
same,Percent Remaining Activity,"40° C., 2 weeks",100%
same,Percent Remaining Activity,"40° C., 4 weeks",93.7%
same,Percent Remaining Activity,"40° C., 6 weeks",100%
same,Percent Remaining Activity,"40° C., 8 weeks",100%
same,Percent Remaining Activity,"40° C., 12 weeks",100%
same,Percent Remaining Activity,"45° C., 1 week",100%
same,Percent Remaining Activity,"45° C., 2 weeks",100%
same,Percent Remaining Activity,"45° C., 4 weeks",92.7%
same,Percent Remaining Activity,"45° C., 6 weeks",97.8%
same,Percent Remaining Activity,"45° C., 8 weeks",100%
same,Percent Remaining Activity,"45° C., 12 weeks",97.6%
same,Percent Remaining Activity,"50° C., 1 week",91.8%
same,Percent Remaining Activity,"50° C., 2 weeks",91.8%
same,Percent Remaining Activity,"50° C., 4 weeks",82.4%
same,Percent Remaining Activity,"50° C., 6 weeks",81.3%
same,Percent Remaining Activity,"50° C., 8 weeks",75.2%
same,Percent Remaining Activity,"50° C., 12 weeks",71.5%
same,Percent Remaining Activity,"55° C., 1 week",82.1%
same,Percent Remaining Activity,"55° C., 2 weeks",75.3%
same,Percent Remaining Activity,"55° C., 4 weeks",46.5%
same,Percent Remaining Activity,"RT, 1 week",100%
same,Percent Remaining Activity,"RT, 2 weeks",100%
same,Percent Remaining Activity,"RT, 4 weeks",94.1%
same,Percent Remaining Activity,"RT, 6 weeks",100%
same,Percent Remaining Activity,"RT, 8 weeks",100%
same,Percent Remaining Activity,"RT, 12 weeks",100%
